Experimental data reported in patent CN115505041A.

Biological target: 人EphA2 (human EphA2 on cells: 293T-EphA2 stable line and EphA2-positive tumour lines HCT116, HepG2, HCC827, MDA-MB-231) (human) (UniProt P29317)
Experiment: FACS on 293T-EphA2 cells, EphrinA1-hFc alone (positive control without hybridoma supernatant), APC anti-human IgG Fc

UniProt P29317, sequence (P29317 24-976): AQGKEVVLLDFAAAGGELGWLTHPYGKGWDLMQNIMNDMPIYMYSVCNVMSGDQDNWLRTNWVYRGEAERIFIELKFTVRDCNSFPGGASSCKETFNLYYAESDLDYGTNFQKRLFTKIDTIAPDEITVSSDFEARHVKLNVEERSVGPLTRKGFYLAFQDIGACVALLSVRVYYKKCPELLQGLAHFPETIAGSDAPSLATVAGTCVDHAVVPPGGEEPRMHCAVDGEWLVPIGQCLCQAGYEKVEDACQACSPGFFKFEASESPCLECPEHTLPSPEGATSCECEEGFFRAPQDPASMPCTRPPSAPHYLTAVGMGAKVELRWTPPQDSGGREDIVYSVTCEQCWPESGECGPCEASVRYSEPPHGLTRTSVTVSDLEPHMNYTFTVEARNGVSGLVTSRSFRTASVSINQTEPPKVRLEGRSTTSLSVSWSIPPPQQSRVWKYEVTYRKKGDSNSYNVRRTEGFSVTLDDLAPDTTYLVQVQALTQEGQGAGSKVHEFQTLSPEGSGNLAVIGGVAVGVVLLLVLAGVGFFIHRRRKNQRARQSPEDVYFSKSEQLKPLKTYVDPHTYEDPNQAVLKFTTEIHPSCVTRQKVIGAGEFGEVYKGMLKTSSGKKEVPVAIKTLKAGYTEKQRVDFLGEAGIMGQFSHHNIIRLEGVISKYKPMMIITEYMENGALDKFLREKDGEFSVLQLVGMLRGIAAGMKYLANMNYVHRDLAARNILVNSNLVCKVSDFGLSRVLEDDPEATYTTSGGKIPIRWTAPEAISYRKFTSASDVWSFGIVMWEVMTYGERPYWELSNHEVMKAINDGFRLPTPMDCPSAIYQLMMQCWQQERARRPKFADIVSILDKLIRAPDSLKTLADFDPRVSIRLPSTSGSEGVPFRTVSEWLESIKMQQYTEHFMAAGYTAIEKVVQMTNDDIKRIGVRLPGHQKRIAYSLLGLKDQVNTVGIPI

293T-EphA2细胞结合活性: 228000
Substance: 重组EphrinA1-hFc配体蛋白 (recombinant EphrinA1-hFc ligand protein) (Fc fusion)
